Results: publication PMC8580825, “Scaffolding protein CcmM directs multiprotein phase separation in β-carboxysome biogenesis” (Nature Structural & Molecular Biology, 2021)
Residue numbers refer to the chain shown, from its start.

B1: EGFPC2_(17) (peptide)
chain: GWLAPEQQQRIYRGNAS
notes: the last 17 residues of CcaA, Synechococcus elongatus PCC 7942; residues 1-255 of CcaA replaced by EGFP-GSGGS; EGFP amplified from pEF-gfp (Addgene); source: E. coli BL21 (DE3), purified (Ni-NTA, H6Ub cleaved, SEC); not shown: EGFP with GSGGS linker, N-terminal, kept; His6-ubiquitin, N-terminal, cleaved
B2: SeM58-E286K (natural protein, Synechococcus elongatus PCC 7942, UniProt Q03513 1-539, looked up)
chain: MPSPTTVPVATAGRLAEPYIDPAAQVHAIASIIGDVRIAAGVRVAAGVSIRADEGAPFQVGKESILQEGAVIHGLEYGRVLGDDQADYSVWIGQRVAITHKALIHGPAYLGDDCFVGFRSTVFNARVGAGSVIMMHALVQDVEIPPGRYVPSGAIITTQQQADRLPEVRPEDREFARHIIGSPPVIVRSTPAATADFHSTPTPSPLRPSSSEATTVSAYNGQGRLSSEVITQVRSLLNQGYRIGTEHADKRRFRTSSWQPCAPIQSTNERQVLSELENCLSEHEGKYVRLLGIDTNTRSRVFEALIQRPDGSVPESLGSQPVAVASGGGRQSSYASVSGNLSAEVVNKVRNLLAQGYRIGTEHADKRRFRTSSWQSCAPIQSSNERQVLAELENCLSEHEGEYVRLLGIDTASRSRVFEALIQDPQGPVGSAKAAAAPVSSATPSSHSYTSNGSSSSDVAGQVRGLLAQGYRISAEVADKRRFQTSSWQSLPALSGQSEATVLPALESILQEHKGKYVRLIGIDPAARRRVAELLIQKP
notes: CcmM (M58), Synechococcus elongatus PCC 7942, point mutant in SSUL1; source: E. coli BL21 (DE3), purified as wild-type M58; not shown: His6-ubiquitin, N-terminal, cleaved
B3: SeM58-R43D (natural protein, Synechococcus elongatus PCC 7942, UniProt Q03513 1-539, looked up)
chain: B2 chain with R43D, K286E
notes: CcmM (M58), Synechococcus elongatus PCC 7942, point mutant in the γCAL domain; source: E. coli BL21 (DE3), purified as wild-type M58; not shown: His6-ubiquitin, N-terminal, cleaved
B4: SeM58-E303K (natural protein, Synechococcus elongatus PCC 7942, UniProt Q03513 1-539, looked up)
chain: B2 chain with K286E, E303K
notes: as for B2
B5: SeM58-D35K (natural protein, Synechococcus elongatus PCC 7942, UniProt Q03513 1-539, looked up)
chain: B2 chain with D35K, K286E
notes: as for B3
B6: SeM58-R37D (natural protein, Synechococcus elongatus PCC 7942, UniProt Q03513 1-539, looked up)
chain: B2 chain with R37D, K286E
notes: as for B3
B7: SeM58-E17K (natural protein, Synechococcus elongatus PCC 7942, UniProt Q03513 1-539, looked up)
chain: B2 chain with E17K, K286E
notes: as for B3
B8: SeM58-D294K (natural protein, Synechococcus elongatus PCC 7942, UniProt Q03513 1-539, looked up)
chain: B2 chain with K286E, D294K
notes: as for B2
B9: SeM58-D21K (natural protein, Synechococcus elongatus PCC 7942, UniProt Q03513 1-539, looked up)
chain: B2 chain with D21K, K286E
notes: as for B3
B10: γCAL domain of M58 (residues 1-181) (domain or fragment, Synechococcus elongatus PCC 7942, UniProt Q03513 1-181, looked up)
chain: MPSPTTVPVATAGRLAEPYIDPAAQVHAIASIIGDVRIAAGVRVAAGVSIRADEGAPFQVGKESILQEGAVIHGLEYGRVLGDDQADYSVWIGQRVAITHKALIHGPAYLGDDCFVGFRSTVFNARVGAGSVIMMHALVQDVEIPPGRYVPSGAIITTQQQADRLPEVRPEDREFARHIIG
notes: residues 1-15 disordered in the crystals; also called γCAL181; source: E. coli BL21 (DE3), purified (Ni-NTA, H6Ub cleaved, SEC); not shown: His6-ubiquitin, N-terminal, cleaved
B11: γCAL domain of M58 (residues 1-198) (domain or fragment, Synechococcus elongatus PCC 7942, UniProt Q03513 1-198, looked up)
chain: MPSPTTVPVATAGRLAEPYIDPAAQVHAIASIIGDVRIAAGVRVAAGVSIRADEGAPFQVGKESILQEGAVIHGLEYGRVLGDDQADYSVWIGQRVAITHKALIHGPAYLGDDCFVGFRSTVFNARVGAGSVIMMHALVQDVEIPPGRYVPSGAIITTQQQADRLPEVRPEDREFARHIIGSPPVIVRSTPAATADFH
notes: also called γCAL198; source: E. coli BL21 (DE3), purified (Ni-NTA, H6Ub cleaved, SEC); not shown: His6-ubiquitin, N-terminal, cleaved

How the values were obtained:
[1] = target: SeM58-R251D (Synechococcus elongatus PCC 7942) (UniProt Q03513); experiment: SEC-MALS; 2 mg/ml protein; 50 mM Tris-HCl pH 8.0/150 mM KCl or 50 mM Tris-HCl pH 8.0/500 mM KCl/5 mM DTT; 25 °C; oligomeric state in solution
[2] = target: SeM58-R298D (Synechococcus elongatus PCC 7942) (UniProt Q03513); experiment: as above
[3] = target: SeM58-R481D (Synechococcus elongatus PCC 7942) (UniProt Q03513); experiment: as above
[4] = target: SeM58-R252D (Synechococcus elongatus PCC 7942) (UniProt Q03513); experiment: as above
[5] = target: SeM58-R367D (Synechococcus elongatus PCC 7942) (UniProt Q03513); experiment: as above
[6] = target: B11; experiment: ITC; EGFPC2_(17) (365 μM) in the syringe titrated into γCAL(1–198) (14 μM); 20 °C; 50 mM Tris pH 8.0/100 mM KCl/10 mM Mg(OAc)2; one-site binding model; conditions: both partners purified
[7] = target: the molecule itself; experiment: SEC-MALS; 2 mg/ml protein; 50 mM Tris-HCl pH 8.0/150 mM KCl or 50 mM Tris-HCl pH 8.0/500 mM KCl/5 mM DTT; 25 °C; oligomeric state in solution

Row | Molecule | stoichiometry N [7] | further results
1 | SeM58-R251D (from UniProt Q03513 1-539) (natural protein) | – | stoichiometry N [1]: 3
2 | SeM58-R298D (from UniProt Q03513 1-539) (natural protein) | – | stoichiometry N [2]: 3
3 | SeM58-R481D (from UniProt Q03513 1-539) (natural protein) | – | stoichiometry N [3]: 3
4 | SeM58-R252D (from UniProt Q03513 1-539) (natural protein) | – | stoichiometry N [4]: 3
5 | SeM58-R367D (from UniProt Q03513 1-539) (natural protein) | – | stoichiometry N [5]: 3
6 | B1 | – | Kd [6]: ~2000 nM; stoichiometry N [6]: ~2.7 per γCAL198 trimer
7 | B2 | 3 | –
8 | B3 | 3 | –
9 | B4 | 3 | –
10 | B5 | 3 | –
11 | B6 | 3 | –
12 | B7 | 3 | –
13 | B8 | 3 | –
14 | B9 | 3 | –
15 | B10 | 3 | –
16 | B11 | 3 | –
